Reference: the supplement of paper PMC9170038

Test system: K4 kissing-loop RNA reporter
Test: apparent KD of K4 kissing-loop reporter; higher = weaker reporter binding
Details: Eterna round: R107
Method: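 RNA-MaP round R107: designed RNA switches with theophylline, tryptophan, arginine or FMN aptamers are transcribed on-chip within common flanks. They are titrated with a labelled K4 kissing-loop RNA reporter in RNA-MaP buffer (100 mM Tris pH 7.5, 80 mM KCl, 4 mM MgCl2), without ligand or with the indicated ligand. Median apparent KD per design.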

[1] = input ligand: theophylline 20 uM
[2] = input ligand: tryptophan 2.4 mM
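Further: bound reporter read as fluorescence of individual clusters on recovered sequencing chips by microscopy, with normalized cluster intensities fitted with a binding model.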

Sequence	apparent KD of K4 kissing-loop reporter (input ligand: FMN 200 uM) [nM]	apparent KD of K4 kissing-loop reporter (input ligand: arginine 13.2 mM) [nM]	apparent KD of K4 kissing-loop reporter (input ligand: none) [nM]	apparent KD of K4 kissing-loop reporter [1] [nM]	apparent KD of K4 kissing-loop reporter [2] [nM]
GGAUCCACCAGUGAUGUUGGAGAAAACUCUAAGGAUAUGACGAAAGUCAGAAGGUGGUAGACUGGGCAAAGUCCGGUCGGAUCCA [FmnA10 U30+G66]	490	120	378	873	660
UGACUGGACUGAAGGAGCGAGCGAGACAAAGUCUCGAAAUCCUAGUGAUGUUAGGAAAUAACUCAGGUAGGUCGCAGUCUAGUCU [ArgBS 9 #SwitchBubble #StaticStem]	181	152	175	170	173
CUAUGGGUGGACGAUACCAGCUAGUGAUGUUAGCGGGUCGAGCACGCGCAUCGCCGUGGUAGCCCUUGGCAGCGUACAGAUGUUU [theeternabot_exclusion_KL_Theo_B_5]	186	131	178	157	162
ACAGGAAUCUUUGAUACCAGAACCCGUCUACCUCCAUCCUUGGAGCAUAGUGAUGUUGUGUUCCCUUGGCAGCAAUAGGGCACAU [theeternabot_exclusion_KL_Theo_B_34]	711	498	632	597	644
AUAGGAGUGAUGUUCCUUAGUUUCUCCGAUACCAGUAUGGAAACAUACCCUUGGCAGCGGGAAACCGCAGAUUAGGAAACUAGUC [Theophylline A K4 6]	208	200	210	210	194
GUAAGACCGGGACUCCAGUGAUGUUGGAGGCAGGAUAUCCAGUCGAGGAGAAGGGCCAGGGAUAUCGAGCUGCUCGGUUUGUAGU [Argeis]	81.9	69.5	93.6	78.9	56.2
UGAUAGGACAGAAGGAGCGGUAGUGAUGUUGCCAAAAGGUUAAGGUGUCAAAAGACACCCUACCAGGUAGGUCGCUGUCCUAUCU	188	207	193	193	179
UGAUAGGACAGAAGGAGCGGUAGUGAUGUUGCCAAAAGGGUAAGGUGUCAAAAGACACCCUGCCAGGUAGGUCGCUGUCCUAUCU	99.7	93.8	98.5	96.6	81.9
AUGACAGAAUCGGCCGCCACUCAUUGUCCUGUGGACAUUCUAGGAUUAGUGAUGUUUUUCCCAUCGAGGACCGGGAUACAGAUUG [theeternabot_sameState_KL_Trp_B_6]	675	267	467	398	519
AAAAUUGCGGUCGAAUUAACUUCUUGCAUACGAGGACCGGUACGGCCGCCACUCGAGUCAAGUGAUGUUUGAUAAUCUAUUAUUA [JR_ExcTryptoA_Sub011]	190	258	279	301	160
CAACUACCCGGAAGGAGCGCGGGUGUAAAUCAAAGGGCUUGAGUGAUGUUCAAGCGGAACCCGCAGGUAGGUCGCCGGGAAGCCC [Quaneson]	113	114	119	114	122
GGCAGUGAUGUUGCCAGUGGCAGAUUGGAAGGAGCGUGGUGAGACACAGGUAGGUCGCUAAUUGAAAUUGCUGUCACUAAAAUGC [whbob_Ex_Arginine_A_2t130]	297	314	307	308	242
UUGGAUUGAUGAGAGUUGAUUUGGUAGGAAGGAGCGGCCGAAAGGCCAGGUAGGUCGCCUAUUGACAGUGAUGUUGUUAUAUGGU [#16]	215	228	237	489	226
GUAGCCCUAUGUGAUACCAGACGGUAUAAAAUCCUGGCGGCCAGUGAUGUUGGCCAUCGCGUCCCUUGGCAGCACCAAGGCUGUA [theeternabot_sameState_KL_Theo_B_18]	122	143	142	118	114
AAGCAGUCCCUUGUAGUCAUCGAAGAUGAACGAGGACCGGUACGGCCGCCACUCGGAGUGAUGUUCCGAAGGCUGCAAAAUAAAA [MatMod 19 - Jieux - Exclusion - Tryptophan A]	122	123	135	152	310
